Test results published in the nanobody polyreactivity screen of Harvey et al. (2022).

Experiment: yeast display, Sf9 membrane polyspecificity reagent, FACS + sequencing; frameworks hold sequencing errors
Summary of the method: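 Genes from sorted yeast were amplified by colony PCR, read by MiSeq 2 × 250 sequencing and filtered on CDR length. These cells carried a synthetic nanobody library in Saccharomyces cerevisiae BJ5465 and were sorted by FACS into low and high (top ~1%) gates on anti-HA and streptavidin fluorescence. Polyreactivity is labelled according to the gate of origin.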

QVQLVESGGGLVQAGGSLRLSCAASGSIFSVNAMGWYRQAPGKERELVAGITISGGRTYYADSVKGRFTISRDNAKNTVYLEMNSLKPEDTAVYYCAADWVYPPGLKDSVHFGEYDYWGQGTQVTVSS
polyreactivity (PSR sort gate): low polyreactivity

QVQLVESGGGLVQAGGSLRLSCAASGFTFGNNGMGWYRQAPGKERELVATISWSGGSTYADSVKGRFTISRDNAKNTVYLQMNSLKPEDTAVYYCAAPYLSLYWYDYWGQGTQVTVSS
polyreactivity (PSR sort gate): low polyreactivity

QVQLVESGGGLVQAGGSLRLSCAASGFTFWLYAMGWYRQATGKEREFVAAISTSGGSTYADSVKGRFTISRDNAKNTVYLQMNSLKPEDTAVYYCNAGYLLYYDYHLFYWGQGTQVTVSS
polyreactivity (PSR sort gate): low polyreactivity

QVQLVESGGGLVQAGGSLRLSCAASGFTFSHYAMGWYRQAPGKERELVAAITASGGNTYYADSVKGRFTISRDNAKNTVYLQMNSLKPEDTAVYYCNAVSLKFTRKYDYWGQGTQVTVSS
polyreactivity (PSR sort gate): high polyreactivity

QVQLVESGGVLVQAGGSLRFSCAASGFFFSSNAIGWYRQAPGKERELVAAISRSVGSTYYADSVKGRFTISRDNAKNTVYLQMNSLKPEDTAVYYCAARIGSYRKYRYDYWGQGTQVTVSS
polyreactivity (PSR sort gate): high polyreactivity

QVQVVESGGGFVQAGGSLRLSCAASGRTFRYYAMGWYRQAPGKERELVAVISSSDSTNYADSVKGRFTISRDNAKNTVNLQMNSLKPEDTGVYYCAKVYRVIRPYGYWGQGTQVTVSS
polyreactivity (PSR sort gate): high polyreactivity

QVQLVESGGGLVQAGGSLRLSCAASGRTFRYNAMGWYRPAPGKERELVAAITKSGGTTYYADSVKGRFTISRDNAKNTVYLQMNSLKPEDTAVYYCNAYRVVHPWEYDYWGQGTQVTVSS
polyreactivity (PSR sort gate): high polyreactivity

QVQLVESGGGLVQAGGSLRLSCAASGRIFVTYAMGWYRHAPGKERELVAAITSDGSTSYADSVKGRFTISRDNAKNTGYLQMNRLKPEDTAVYYSAKDFFEHSPVSHTYSSSKYEYWGQGTQVTVSS
polyreactivity (PSR sort gate): low polyreactivity

QVQLVESGGGLVKAGGSLRLSCAASGFNFSSYALGWYRPAPGKERELVAAISYSGGSTYYADSVKGRFTISRDNAKNTVYLQMNSLKPEDTAVYYCNKLRGYGLRYIVSLDYWGQGTQVSVSS
polyreactivity (PSR sort gate): high polyreactivity

QDQLVESGGGLVKAGGSLRLSCAASGGTFYYYAMGWYRQAPGKERELVAANTRSGGNAYYADSVKARFTISRDNAKNTVYLLLHSLKPEDTAVYYCAAPFVNFVGSLVYAGYDSCGQGTQVTVSS
polyreactivity (PSR sort gate): low polyreactivity

QVQLVESGGRLVQAGGSLRLSCAASGFTFARYAMGWYRQAPGKERELVARISSDGGGTDYADSVKGRFTISRDNAKNTVYLQMNSLKPEDTAVYYCYADPYSRFWGPDYGYWGQGTQVTVSS
polyreactivity (PSR sort gate): low polyreactivity

QVQLVESGGGLVQAGGRLRLSCAASGSTFIGNAMGWYRQAPGKERELVAAISRTGGSTYADSVKGRFTISRDNAKNTVYLQMNSLKPEDTAVYYCAAKYYYLYYYWGQGTQVTVSS
polyreactivity (PSR sort gate): high polyreactivity

QVQLVESRGGLVQAGGSLRLSCAASGFTFYSNAMGWYRQAPGKERELVAAIAKRGGSTYYADSVKGRFTISRDNAKNTVYLQMISLKPEDTAVYYCNKDYYARKYDYWGQGTLVTVSS
polyreactivity (PSR sort gate): high polyreactivity

QVQLVESGGGLVQAGGSLRLSCAASGRTFVPYAMGWYRQAPGKERELVAAISWSSVSTYYADSVKGRFTISRDNAKNTVYLQMNSLKPEDTAVYYCAAEYYTRVAEYYYWGQGTQVTVSS
polyreactivity (PSR sort gate): high polyreactivity

QVQLVESGGGLVQAGCSLRLSCAASGSIYPYAMGWYRQAPGKERELVDAISFSDDRTYYADSVKGRFTISRDIAKNNVYVQMNSLKPEDTAFYYCDAYYFSADEYEYVYWGQGTQVTLSS
polyreactivity (PSR sort gate): high polyreactivity

QVQLVESGGGLVQAGGSLSLSCAASGFIFNYYVMGWYRQAPGKERELVATISWRGGRTYYADSVKGRFTISRDNAKNTVYLQMNSLKPEDTAVYYCAKDSYYFTRYDYWGQGTQVTVSS
polyreactivity (PSR sort gate): low polyreactivity

QVQLVESGGGLVQAGGSLRLSCAASGFIFSRYGMGWYRQAPGKERELVAAISRTGGSTYYADSVKGRFTISRDNAKNTVYFQMNSLKPEDTAVYYCATAYSWRNADWFAYSYDYWGQGTQVTVSS
polyreactivity (PSR sort gate): low polyreactivity

QVQHVESGGGLVQAGGSLRLSCAASGRIFWDNASGWYRQAPGKVSELHAAISDSVVITYFADSVKGRFTISRDTAKYTVYLQMNSLKPEDTAFYYCAAHKRCTVYLSSFWMDYWGQGNQVTVSS
polyreactivity (PSR sort gate): low polyreactivity

QVQLVESGGGLVQAGGSLRLSCAASGGTFPQYAMGWYRQAPGKEREFVADITSRGGTTYYADSVKGRFTISRDNAKNTVYLQMNSLKPEDTAVYYCAAVNVAYSWYDTGYDYWGQGTQVTVSS
polyreactivity (PSR sort gate): low polyreactivity

QVQLVESGGGLVQAGGSLRLSCAASGSILGVNVMGWYRQAPGKERELVAAISLSSSRTNYADSVKGRFTISRDNAKNTVYLQMNSLKPVDTAVYDCASAVRPGYARPYTSWGQGTQVTVSS
polyreactivity (PSR sort gate): high polyreactivity

QVQLVESGGGLVQAGGSLRLSCAASGSTFGFYAMGWFRQAPGKERELVAAISSSGSTYYADSVKGRFTISRDNAKNTVYVQINRLKPEDTAVYYCYADYWRYISSYDYWGQGTQVTVSS
polyreactivity (PSR sort gate): low polyreactivity

QVQLVESGGGLVQAGGSLRLSCASSGLTFELYAMGWYRQAPGKERELVAAITWSGGRTYYADSVKGRFTISRDNAKNTVYLQMNSLKPEDTAVYYCAADVYPGYVGSQEYDYWGQGTQVTVSS
polyreactivity (PSR sort gate): low polyreactivity

QVQLVESGGGLVQAGGSLRLSCAASGSIIYLYAMGWYRQAPGKERELVAAINDDAGSTYYADSVKGRFTISRDNAKNTVYLQMNSLKPEDTAVYYCNAGSRSTEYDYWGQGTQVTVSS
polyreactivity (PSR sort gate): low polyreactivity

QVQLVESGGGLVQAGGSLRLSCAASGSTYWINAMGWYRQAPGKEREFVAAIRWNGGSTNYADSVKGRFTISRDNAKNTVYLQMNSLKPEDTAVYYCAADGYIGWRHIYEYWGQGTQVTVSS
polyreactivity (PSR sort gate): low polyreactivity

QVQLVESGGGLVQAGGSLRLSCAASGSIFFSYAMGWYRQAPGKERELVAAISSGGSTYYADSVKGRFTISRDNAKNTVYLQMNSLKPEDTAVYYCAARGYRLVPVDFYYWGQGTQVTVSS
polyreactivity (PSR sort gate): low polyreactivity

QVQVVESGGGLVQAGGSLGLSCAASGSTFTRNAMGWYRQAPGKERELVAAITSSGGSTYYADSVKGRFTISRDNAKNTVYLLMNSLKPEDTAVYYCAAYVRPSYFGWMDYWGQGTQVTVSS
polyreactivity (PSR sort gate): low polyreactivity

QVQLVESGGGLVQAGGSLRLSCAASGSIFYTNAMGWYRQAPGKERELVAAYADSVKGRFTISRDNAKNTVYLQMNSLKPEDTAVYYCNAVLPIYRYLYEGDYWGQGTQVTVSS
polyreactivity (PSR sort gate): low polyreactivity

QVQLEDSGGGLVQAGGSLRLSCAASGSIFATNAMGWYRQGPGKERELVAAISRSGASTYYADSVKGRFTISRDNAKNTVYLQMNRLKPEDTAVYYCNKVLYRDAYHSYGFEYWGQGTQVTVSS
polyreactivity (PSR sort gate): high polyreactivity

QVQHVESGGGLVQAGGSLRLSCAASGRTFHWYAMGWYRQAPGKERELVAAIRYSAGSTYYADSVKGRFTISRDNAKNTVYLQMNSLKPEDTAVYYCAARPPYTDSSPGERTYDYWGQGTQVTVSS
polyreactivity (PSR sort gate): low polyreactivity

QVHLVESGGGLVQAGGSLRLSCAASGRTFSWNALGWYRQAPGKQRELVAVISRGDSTNYADSVKGRFTISRDNEKNTVYLQMNSLKPVDNAVYYCAADGYPPGYGYWGQGTQVTVSS
polyreactivity (PSR sort gate): low polyreactivity

QVQLVESGGGLVQAGGSLRLSCAASGSTFSGYDRGWYRQEPGKESEFVATITYSGGSTYYADSVKGRFTISRDNAKNTVYLQMNSLKPEDTAVYYCAADTPDAPDYSGLYYWGQGTQVTVSS
polyreactivity (PSR sort gate): low polyreactivity
